From US20260022155A1

Biological target: HVEM expressed on cell lines (KTPloCD86A2 HVEM; K562CD19/HVEM) (UniProt Q92956)
Test: cell-based or functional assay
Details: scale: times higher than CD19-28z electroporated T cells

Chain of UniProt Q92956 (Q92956 39-283 limits assumed): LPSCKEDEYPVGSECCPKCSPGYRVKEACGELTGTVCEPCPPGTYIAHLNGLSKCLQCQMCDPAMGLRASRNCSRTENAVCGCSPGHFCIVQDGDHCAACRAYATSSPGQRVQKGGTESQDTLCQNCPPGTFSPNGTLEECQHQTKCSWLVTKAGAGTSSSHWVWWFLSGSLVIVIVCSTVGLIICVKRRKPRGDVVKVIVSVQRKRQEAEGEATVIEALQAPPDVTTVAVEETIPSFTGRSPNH

Work on BTLA-CD28 CCR (receptor) yielded an IL-2 production (ELISA) of T cells co-electroporated with CD19z and BTLA-CD28 CCR of 4.
